Reference: patent publication US20120316071A1 (published 2012)
Blank lines part the entries; values can stand above or below the binder they belong to.

Key:
[1] = target: T1, rHuman CD44/Fc Chimera, CF (R&D Systems Cat#3660-CD) (human, UniProt P16070 21-220); assay: MSD multispot ECL, antigen spotted, Fab 0.6 nM; blank spot 226
T1 construct: Bought reagent

[2] = target: T2, rHuman Notch-1/Fc Chimera, CF (R&D Systems Cat#3647-TK) (human, UniProt P46531 19-526); assay: as above
T2 construct: Bought reagent

[3] = target: T3, rHuman Erythropoietin R/Fc Chimera, CF (R&D Systems Cat#963-ER) (human, UniProt P19235 25-250); assay: MSD multispot ECL, antigen spotted on plate, Fab 176.3 nM; blank spot 346
T3 construct: Bought from R&D Systems; also called EPO R/Fc; Epo R/Fc chimera; not shown: Fc of the bought chimera
T3 sequence (looked up): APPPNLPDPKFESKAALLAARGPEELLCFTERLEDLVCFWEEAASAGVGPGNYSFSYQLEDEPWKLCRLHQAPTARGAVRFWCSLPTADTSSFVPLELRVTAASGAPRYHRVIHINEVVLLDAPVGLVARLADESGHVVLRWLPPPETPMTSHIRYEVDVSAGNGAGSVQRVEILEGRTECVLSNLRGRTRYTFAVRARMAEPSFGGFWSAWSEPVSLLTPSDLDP

[4] = target: T4, Recombinant Human DLL4 (R&D Systems Cat#1506-D4/CF) (human, UniProt Q9NR61 27-524); assay: as above
T4 construct: Bought from R&D Systems; also called rHuman DLL4; delta-like protein 4

[5] = target: T5, rHuman IGF-1 sR, (IGF-1 sR), CF (R&D Systems Cat#391-GR) (human, UniProt P08069 31-932); assay: as above
T5 construct: Bought from R&D Systems and called a soluble receptor; also called insulin-like growth factor-1 soluble receptor

[6] = target: T6, rHuman HGF R/c-MET/Fc Chimera, CF (R&D Systems Cat#358-MT/CF) (human, UniProt P08581 25-932); assay: as above
T6 construct: Bought from R&D Systems; also called HGF R/Fc; hepatocyte growth factor receptor (HGF R/c-Met); not shown: Fc of the bought chimera

[7] = target: T7, rHuman EGF R/Fc Chimera, CF (R&D Systems Cat#344-ER) (human, UniProt P00533 25-645); assay: as above
T7 construct: Bought from R&D Systems; also called epidermal growth factor receptor (EGF R); not shown: Fc of the bought chimera

[8] = target: T8, rHuman Notch-1/Fc Chimera, CF (R&D Systems Cat#3647-TK) (human, UniProt P46531 19-526); assay: as above
T8 construct: Bought from R&D Systems; not shown: Fc of the bought chimera

[9] = target: T9, rHuman CD44/Fc Chimera, CF (R&D Systems Cat#3660-CD) (human, UniProt P16070 21-220); assay: as above
T9 construct: Bought from R&D Systems; not shown: Fc of the bought chimera

[10] = target: T10, rHuman EGF R/Fc Chimera, CF (R&D Systems Cat#344-ER) (human, UniProt P00533 25-645); assay: MSD multispot ECL, antigen spotted on plate; Fab 0.1275 uM; blank spot 530
T10 construct: Bought recombinant protein; also called epidermal growth factor receptor; Fc part of the bought chimera not given

[11] = target: T11, rHuman Notch-1/Fc Chimera, CF (R&D Systems Cat#3647-TK) (human, UniProt P46531 19-526); assay: as above
T11 construct: Bought recombinant protein; Fc part of the bought chimera not given

[12] = target: T12, rHuman P-Cadherin/Fc Chimera, CF (R&D Systems Cat#861-PC) (human, UniProt P22223 108-654); assay: as above
T12 construct: Bought recombinant protein; Fc part of the bought chimera not given

[13] = target: T13, rHuman CD44/Fc Chimera, CF (R&D Systems Cat#3660-CD) (human, UniProt P16070 21-220); assay: as above
T13 construct: Bought recombinant protein; Fc part of the bought chimera not given

[14] = target: T14, rHuman ErbB2/Fc Chimera, CF (R&D Systems Cat#1129-ER) (human, UniProt P04626 23-652); assay: as above
T14 construct: Bought recombinant protein; also called human epidermal growth factor 2 receptor; Fc part of the bought chimera not given

[15] = target: T15, Recombinant Human DLL4 (R&D Systems Cat#1506-D4/CF) (human, UniProt Q9NR61 27-524); assay: as above
T15 construct: Bought recombinant protein; also called delta-like protein 4; rHuman DLL4

[16] = target: T16, rHuman HGF R/c-MET/Fc Chimera, CF (R&D Systems Cat#358-MT/CF) (human, UniProt P08581 25-932); assay: as above
T16 construct: Bought recombinant protein; also called HGF R/Fc; hepatocyte growth factor receptor; Fc part of the bought chimera not given

[17] = target: T17, rHuman Erythropoietin R/Fc Chimera, CF (R&D Systems Cat#963-ER) (human, UniProt P19235 25-250); assay: as above
T17 construct: Bought recombinant protein; also called EPO R/Fc; Epo R; Fc part of the bought chimera not given
T17 sequence (looked up): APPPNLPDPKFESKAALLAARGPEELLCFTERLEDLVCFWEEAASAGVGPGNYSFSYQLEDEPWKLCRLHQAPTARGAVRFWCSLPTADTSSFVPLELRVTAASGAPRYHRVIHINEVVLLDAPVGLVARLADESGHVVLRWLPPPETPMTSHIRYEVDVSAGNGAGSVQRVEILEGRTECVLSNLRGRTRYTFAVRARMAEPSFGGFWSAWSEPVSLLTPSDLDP

[18] = target: T18, rHuman IGF-1 sR, CF (R&D Systems Cat#391-GR) (human, UniProt P08069 31-932); assay: as above
T18 construct: Bought recombinant soluble receptor; also called insulin-like growth factor-1 soluble receptor

ECL signal [1]: 238 ECL signal
ECL signal [2]: 337 ECL signal
B1: Fab VH1-46_IGHD6-6*01_IGHJ1*01 & L6_IGKJ1*01 (Fab, V domains shown)
VH: QVQLVQSGAEVKKPGASVKVSCKASGYTFTSYYMHWVRQAPGQGLEWMGIINPSGGSTSYAQKFQGRVTMTRDTSTSTVYMELSSLRSEDTAVYYCAREEYSSSSAEYFQHWGQGTLVTVSS
VL: not shown
notes: Only variable domains are tied to the molecule; Tested as a Fab made in E. coli: heavy chain from Plasmid A (CH1 constant region, His6 and Flag tags), kappa light chain from Plasmid C (kappa CL); also called parent Hit Fab against DLL4; VH1-46_IGHD6-6*01_IGHJ1*01 & L6_IGKJ1*01 (parental)

ECL signal [3]: 3520
ECL signal [4]: 460
ECL signal [5]: 393
ECL signal [6]: 418
ECL signal [7]: 428
ECL signal [8]: 664
ECL signal [9]: 376
B2: Fab VH1-46_IGHD3-10*01_IGHJ4*01 & B3_IGKJ1*01 (Fab, V domains shown)
VH: QVQLVQSGAEVKKPGASVKVSCKASGYTFTSYYMHWVRQAPGQGLEWMGIINPSGGSTSYAQKFQGRVTMTRDTSTSTVYMELSSLRSEDTAVYYCAREYYYGSGSYYNDYFDYWGQGTLVTVSS
VL: not shown
notes: Tested as a Fab made in E. coli; VH was cloned into Plasmid A (CH1 constant region, His6 and Flag tags); The kappa VL was cloned into Plasmid C (kappa CL)

ECL signal [10]: 1060
ECL signal [11]: 1500
ECL signal [12]: 957
ECL signal [13]: 926
ECL signal [14]: 857
ECL signal [15]: 2380
ECL signal [16]: 853
ECL signal [17]: 1070
ECL signal [18]: 1040
B3: Fab VH4-34_IGHD7-27*01_IGHJ4*01 & L5_IGKJ1*01 (Fab, V domains shown)
VH: QVQLQQWGAGLLKPSETLSLTCAVYGGSFSGYYWSWIRQPPGKGLEWIGEINHSGSTNYNPSLKSRVTISVDTSKNQFSLKLSSVTAADTAVYYCARANWGDYFDYWGQGTLVTVSS
VL: DIQMTQSPSSVSASVGDRVTITCRASQGISSWLAWYQQKPGKAPKLLIYAASSLQSGVPSRFSGSGSGTDFTLTISSLQPEDFATYYCQQANSFPPWTFGQGTKVEIKR
notes: Germline library Fab expressed in E. coli; VH was cloned into Plasmid A, which adds CH1 with His6 and Flag tags
